T1: virus-like particles (VLPs) of BK polyomavirus VP-1 protein, serotype Ib2 (BK virus (BKPyV), serotype Ib2, PA …, UniProt P03088 1-362)
T1 construct: native VLPs; also the immunogen; also called VLP Ib2; BK Ib2
T1 chain: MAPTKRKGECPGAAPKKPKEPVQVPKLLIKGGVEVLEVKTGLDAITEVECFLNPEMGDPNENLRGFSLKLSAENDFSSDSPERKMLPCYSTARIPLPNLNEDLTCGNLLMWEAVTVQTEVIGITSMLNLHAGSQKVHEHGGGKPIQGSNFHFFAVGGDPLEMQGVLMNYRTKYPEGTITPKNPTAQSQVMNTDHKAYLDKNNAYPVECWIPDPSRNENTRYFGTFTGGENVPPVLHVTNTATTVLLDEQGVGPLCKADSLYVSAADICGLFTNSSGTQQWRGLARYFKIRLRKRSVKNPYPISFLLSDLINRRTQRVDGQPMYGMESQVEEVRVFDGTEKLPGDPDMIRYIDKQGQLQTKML

T2: virus-like particles (VLPs) of BK polyomavirus VP-1 protein, serotype II (BK virus (BKPyV), serotype II, UniProt P14996 1-362)
T2 construct: native VLPs; also called VLP II
T2 chain: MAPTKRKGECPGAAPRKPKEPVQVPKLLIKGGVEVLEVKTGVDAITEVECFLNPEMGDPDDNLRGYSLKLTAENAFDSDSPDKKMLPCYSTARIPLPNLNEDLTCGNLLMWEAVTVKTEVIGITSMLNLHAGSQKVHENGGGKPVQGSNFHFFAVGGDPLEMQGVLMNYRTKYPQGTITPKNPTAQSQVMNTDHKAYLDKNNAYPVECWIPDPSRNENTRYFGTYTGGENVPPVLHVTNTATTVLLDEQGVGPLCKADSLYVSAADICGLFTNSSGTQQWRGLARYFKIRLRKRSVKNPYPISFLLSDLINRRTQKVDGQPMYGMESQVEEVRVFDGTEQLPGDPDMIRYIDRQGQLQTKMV

T3: virus-like particles (VLPs) of BK polyomavirus VP-1 protein, serotype IV (BK virus (BKPyV), serotype IV, UniProt P14996 1-362)
T3 construct: native VLPs; also called VLP IV
T3 chain: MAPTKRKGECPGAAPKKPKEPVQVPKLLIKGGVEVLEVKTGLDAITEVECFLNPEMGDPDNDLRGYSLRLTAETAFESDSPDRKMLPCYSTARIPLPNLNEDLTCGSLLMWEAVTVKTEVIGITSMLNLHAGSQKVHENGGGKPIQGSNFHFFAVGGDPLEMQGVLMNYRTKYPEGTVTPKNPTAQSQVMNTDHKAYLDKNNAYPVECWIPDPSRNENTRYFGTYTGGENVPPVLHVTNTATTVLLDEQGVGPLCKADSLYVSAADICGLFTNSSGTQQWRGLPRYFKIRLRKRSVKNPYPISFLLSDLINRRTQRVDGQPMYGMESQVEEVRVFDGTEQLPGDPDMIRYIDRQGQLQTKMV

T4: virus-like particles (VLPs) of BK polyomavirus VP-1 protein, serotype Ia (BK virus (BKPyV), serotype Ia, UniProt P03088 1-361)
T4 construct: self-assembled native VLPs coated on ELISA plates; also called VLP Ia; BKV VP-1, serotype Ia
T4 chain: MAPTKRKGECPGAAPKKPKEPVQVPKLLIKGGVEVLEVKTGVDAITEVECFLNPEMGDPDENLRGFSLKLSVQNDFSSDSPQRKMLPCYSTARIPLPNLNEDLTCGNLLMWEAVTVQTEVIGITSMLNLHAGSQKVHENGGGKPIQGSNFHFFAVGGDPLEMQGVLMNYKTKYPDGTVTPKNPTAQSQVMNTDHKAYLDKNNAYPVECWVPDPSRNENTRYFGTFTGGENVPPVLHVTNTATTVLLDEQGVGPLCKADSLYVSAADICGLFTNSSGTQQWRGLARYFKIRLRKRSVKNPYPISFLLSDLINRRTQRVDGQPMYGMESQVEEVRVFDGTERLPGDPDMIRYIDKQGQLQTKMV


Assays:
[1] = biological target: T1, virus-like particles (VLPs) of BK …; test: ELISA on not denatured VLP (threshold OD>0.5)
Description: (§1) The wells were then blocked for 1 hour at +37° C. with a PBS/SVF mixture. After dilution in a dilution buffer containing SVF, PBS and Tween® 20, the individual culture supernatants or purified antibodies were added for 1 hour at +37° C. The wells were washed four times in a row with Wash Buffer and a secondary anti-mouse peroxidase antibody was added to the 1/2000 dilution for 1 hour at +37° C. The wells were washed again four times in a row and the substrate was added for 30 minutes at room temperature. A stop solution was added and then each well was read by measuring the absorbance at 492 nm with a spectrophotometer. The value obtained for the average of the control wells (PBS in the first step) was subtracted from the optical density values obtained for each well (detection threshold: OD>0.5).

[2] = biological target: T2, virus-like particles (VLPs) of BK …; test: ELISA on not denatured VLP (threshold OD>0.5)
Description: as §1

[3] = biological target: T1, virus-like particles (VLPs) of BK …; test: ELISA on coated VLP; supernatant 1/20
Description: (§2) To do this, the VLPs produced were deposited at a concentration of 1 μg/mL in PBS and incubated overnight at +4° C. The wells were then blocked for 1 h at +37° C. with a PBS/FCS (phosphate-buffered saline/fetal calf serum) mixture. After dilution in a dilution buffer containing FCS, PBS and Tween® 20, the various hybridoma culture supernatants were added for 1 h at +37° C. The wells were washed four times in a row with Wash Buffer and a secondary anti-mouse antibody coupled to peroxidase was added to the 1:2000 dilution for 1 h at +37° C. The wells were washed four more times and the substrate (OPD (ortho phenylene diamine)+H₂O₂) was added for 30 min at room temperature. A stop solution (H₂SO₄ 4N) was then added and each well was read by measuring the absorbance at 492 nm with a spectrophotometer. The value obtained for the average of the control wells (PBS in the first step) is subtracted from the optical density values obtained for each well.

[4] = biological target: T3, virus-like particles (VLPs) of BK …; test: ELISA on coated VLP; supernatant 1/20
Description: as §2

[5] = biological target: T4, virus-like particles (VLPs) of BK …; test: ELISA on coated VLP; supernatant 1/20
Description: as §2

[6] = biological target: T2, virus-like particles (VLPs) of BK …; test: ELISA on coated VLP; supernatant 1/20
Description: as §2

[7] = biological target: T1, virus-like particles (VLPs) of BK …; test: ELISA on coated VLP; supernatant 1/640
Description: as §2

[8] = biological target: T3, virus-like particles (VLPs) of BK …; test: ELISA on coated VLP; supernatant 1/640
Description: as §2

[9] = biological target: T2, virus-like particles (VLPs) of BK …; test: ELISA on coated VLP; supernatant 1/640
Description: as §2

[10] = biological target: T1, virus-like particles (VLPs) of BK …; test: ELISA on coated VLP; supernatant 1/10
Description: as §2

[11] = biological target: T3, virus-like particles (VLPs) of BK …; test: ELISA on coated VLP; supernatant 1/10
Description: as §2

[12] = biological target: T4, virus-like particles (VLPs) of BK …; test: ELISA on coated VLP; supernatant 1/10
Description: as §2

[13] = biological target: T2, virus-like particles (VLPs) of BK …; test: ELISA on coated VLP; supernatant 1/10
Description: as §2

Binder | OD 492 nm [1] | OD 492 nm [2] | OD 492 nm [3] | OD 492 nm [4] | OD 492 nm [5] | OD 492 nm [6] | OD 492 nm [7] | OD 492 nm [8] | OD 492 nm [9] | OD 492 nm [10] | OD 492 nm [11] | OD 492 nm [12] | OD 492 nm [13]
monoclonal antibody ‘18A2’ derived from hybridoma 18A2 (antibody, V domains shown, Mouse hybridoma antibody) VH: DVQLQESGPGLVKPSQSLSLTCSVTGYSITSGYYWNWIRQFPGNKLEWMGYISYDGSNNYNPSLKNRISITRDTSKNQFFLKLNSVTTEDTATYYCARWEGTTDYWGQGTTLTVSS VL: not shown | 0.565 OD | 1.71 OD | – | – | – | – | – | – | – | – | – | – | –
monoclonal antibody ‘F6’ secreted by clone BK6A2F6 (antibody) heavy: EVQLQQSGPELVKPGASVKISCKASGYSFTGYFMNWVKQSHGKSLEWIGRINPYNGDTFYNQKFKGKATLTVDKSSSTAHMELLSLTSEDSAVYYCGSYYYGDYFDYWGQGTTLTVSSAKTTPPSVYPLAPGSAAQTNSMVTLGCLVKGYFPEPVTVTWNSGSLSSGVHTFPAVLQSDLYTLSSSVTVPSSTWPSETVTCNVAHPASSTKVDKKIVPRDCGCKPCICTVPEVSSVFIFPPKPKDVLTITLTPKVTCVVVDISKDDPEVQFSWFVDDVEVHTAQTQPREEQFNSTFRSVSELPIMHQDWLNGKEFKCRVNSAAFPAPIEKTISKTKGRPKAPQVYTIPPPKEQMAKDKVSLTCMITDFFPEDITVEWQWNGQPAENYKNTQPIMDTDGSYFVYSKLNVQKSNWEAGNTFTCSVLHEGLHNHHTEKSLSHSPGK light: […] | 2.7 OD | 3 OD | 1.22 OD | 3.16 OD | 3.23 OD | 1.65 OD | 0.19 OD | 2.86 OD | 0.14 OD | 2.7 OD | 3.25 OD | 3.08 OD | 3 OD
monoclonal antibody ‘H6’ secreted by clone BK6A2H6 (antibody, V domains shown) VH: EVQLQQSGPELVKPGASVKISCKASGYSFTGYFMNWVKQSHGKSLEWIGRINPYNGDTFYNQKFKGKATLTVDKSSSTAHMELLSLTSEDSAVYYCGSYYYGDYFDYWGQGTTLTVSS VL: SIVMTQIPKFLLVSEGDRVTITCKASQSVSNDVAWYQQKSGQSPKLLIYYASNRYTGVPDRFTGSGYGTDFTFTISTVQAEDLAVYFCQQDYSSPLTFGAGTKLELKR | – | – | 0.82 OD | 3.21 OD | 3.06 OD | 0.86 OD | 0.17 OD | 1.59 OD | 0.08 OD | 1.71 OD | 3.29 OD | 2.99 OD | 2.96 OD

— patent publication US20220396612A1 (UNIVERSIT DE TOURS, published 2022)
